Measured values published in the RNAGym collection of RNA variant scans (doi:10.1093/molbev/msab373).

B1: Azoarcus group I ribozyme (parent)
chain: GUGCCUUGCGCCGGGAAACCACGCAAGGGAUGGUGUCAAAUUCGGCGAAACCUAAGCGCCCGCCCGGGCGUAUGGCAACGCCGAGCCAAGCUUCGGCGCCUGCGCCGAUGAAGGUGUAGAGACUAGACGGCACCCACCUAAGGCAAACGCUAUGGUGAAGGCAUAGUCCAGGGAGUGGCGAAAGUCACACAAACCGG

Variants of: B1
Test: reverse-splicing fitness (ratio to wild type); higher = more active; in vitro selection; Mg2+ level not given
Procedure, shortened: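 An in vitro group I ribozyme library with randomized positions was T7-transcribed and gel-purified. In triplicate, 10 pmol RNA in EPPS pH 7.5 was reacted with 50 pmoles of a 30-nt RNA substrate for 1 h at 37 °C across several added MgCl2 levels (1–48 mM), then stopped with EDTA. Products were reverse transcribed from a substrate-complementary primer, PCR-amplified and sequenced (HiSeq 4000). Fitness is a variant's read proportion after selection over that before, normalised to wild type.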

**Q.** With GUGCCUUGCGCCGGGAAACCACGCAAGGGAUGGUGUCAAAUUCGGCGAAACCUAAGCGCCCGCCCGGGCGUAUGGCAACGCUGAGCCAAGCUUCGGCGCCUGCGCCGAUGCAGGUGUAGCGACUAGACGGCACCCACCUAAGGCGAACGGUAUGGUGAAGGCAUAGUCAAGGGAGUGGCGAAAGUCACACAAACCGG [C82U A111C A120C A145G C150G C169A] as the variant, how does the reverse-splicing fitness read?
**A.** 0.0079

**Q.** For GUGCCUUGCGCCGGGAAACCACGCAAGGGAUGGUGUCAAAUUCGGCGAAACCUAAGCGCCCGCCCGGGCGUAUGGCAACGCUGAGCCAAGCUUCGGCGCCUGCGCCGAUGCAGGUGUAGCGACUAGACGGCACCCACCUAAGGCGAACGGUAUGGUGAAGGCAUAGUCUAGGGAGUGGCGAAAGUCACACAAACCGG [C82U A111C A120C A145G C150G C169U], which reverse-splicing fitness is on record?
**A.** 0.00816

**Q.** For GUGCCUUGCGCCGGGAAACCACGCAAGGGAUGGUGUCAAAUUCGGCGAAACCUAAGCGCCCGCCCGGGCGUAUGGCAACGCUGAGCCAAGCUUCGGCGCCUGCGCCGAUGCAGGUGUAGCGACUAGACGGCACCCACCUAAGGCGAACGGUAUGGUGAAGGCAUAGUCGAGGGAGUGGCGAAAGUCACACAAACCGG [C82U A111C A120C A145G C150G C169G], which reverse-splicing fitness is on record?
**A.** 0.00708

**Q.** With GUGCCUUGCGCCGGGAAACCACGCAAGGGAUGGUGUCAAAUUCGGCGAAACCUAAGCGCCCGCCCGGGCGUAUGGCAACGCUGAGCCAAGCUUCGGCGCCUGCGCCGAUGCAGGUGUAGCGACUAGACGGCACCCACCUAAGGCGAACGGUAUGGUGAAGGCAUAGUCUAGGGAGGGGCGAAAGUCACACAAACCGG [C82U A111C A120C A145G C150G C169U U176G] as the variant, how does the reverse-splicing fitness read?
**A.** 0.007

**Q.** Which reverse-splicing fitness does the source give for GUGCCUUGCGCCGGGAAACCACGCAAGGGAUGGUGUCAAAUUCGGCGAAACCUAAGCGCCCGCCCGGGCGUAUGGCAACGCUGAGCCAAGCUUCGGCGCCUGCGCCGAUGCAGGUGUAGCGACUAGACGGCACCCACCUAAGGCGAACGGUAUGGUGAAGGCAUAGUCUAGGGAGCGGCGAAAGUCACACAAACCGG [C82U A111C A120C A145G C150G C169U U176C] here?
**A.** 0.0122

**Q.** For GUGCCUUGCGCCGGGAAACCACGCAAGGGAUGGUGUCAAAUUCGGCGAAACCUAAGCGCCCGCCCGGGCGUAUGGCAACGCUGAGCCAAGCUUCGGCGCCUGCGCCGAUGCAGGUGUAGCGACUAGACGGCACCCACCUAAGGCGAACGGUAUGGUGAAGGCAUAGUCUAGGGAGAGGCGAAAGUCACACAAACCGG [C82U A111C A120C A145G C150G C169U U176A], which reverse-splicing fitness is on record?
**A.** 0.0111

**Q.** Which reverse-splicing fitness does the source give for GUGCCUUGCGCCGGGAAACCACGCAAGGGAUGGUGUCAAAUUCGGCGAAACCUAAGCGCCCGCCCGGGCGUAUGGCAACGCUGAGCCAAGCUUCGGCGCCUGCGCCGAUGCAGGUGUAGCGACUAGACGGCACCCACCUAAGGCGAACGGUAUGGUGAAGGCAUAGUCAAGGGAGCGGCGAAAGUCACACAAACCGG [C82U A111C A120C A145G C150G C169A U176C] here?
**A.** 0.0116

**Q.** With GUGCCUUGCGCCGGGAAACCACGCAAGGGAUGGUGUCAAAUUCGGCGAAACCUAAGCGCCCGCCCGGGCGUAUGGCAACGCUGAGCCAAGCUUCGGCGCCUGCGCCGAUGCAGGUGUAGCGACUAGACGGCACCCACCUAAGGCGAACGGUAUGGUGAAGGCAUAGUCAAGGGAGGGGCGAAAGUCACACAAACCGG [C82U A111C A120C A145G C150G C169A U176G] as the variant, how does the reverse-splicing fitness read?
**A.** 0.00708

**Q.** For GUGCCUUGCGCCGGGAAACCACGCAAGGGAUGGUGUCAAAUUCGGCGAAACCUAAGCGCCCGCCCGGGCGUAUGGCAACGCUGAGCCAAGCUUCGGCGCCUGCGCCGAUGCAGGUGUAGCGACUAGACGGCACCCACCUAAGGCGAACGGUAUGGUGAAGGCAUAGUCAAGGGAGAGGCGAAAGUCACACAAACCGG [C82U A111C A120C A145G C150G C169A U176A], which reverse-splicing fitness is on record?
**A.** 0.0111

**Q.** For GUGCCUUGCGCCGGGAAACCACGCAAGGGAUGGUGUCAAAUUCGGCGAAACCUAAGCGCCCGCCCGGGCGUAUGGCAACGCUGAGCCAAGCUUCGGCGCCUGCGCCGAUGCAGGUGUAGCGACUAGACGGCACCCACCUAAGGCGAACGGUAUGGUGAAGGCAUAGUCCAGGGAGAGGCGAAAGUCACACAAACCGG [C82U A111C A120C A145G C150G U176A], which reverse-splicing fitness is on record?
**A.** 0.00676

**Q.** For GUGCCUUGCGCCGGGAAACCACGCAAGGGAUGGUGUCAAAUUCGGCGAAACCUAAGCGCCCGCCCGGGCGUAUGGCAACGCUGAGCCAAGCUUCGGCGCCUGCGCCGAUGCAGGUGUAGCGACUAGACGGCACCCACCUAAGGCGAACGGUAUGGUGAAGGCAUAGUCCAGGGAGGGGCGAAAGUCACACAAACCGG [C82U A111C A120C A145G C150G U176G], which reverse-splicing fitness is on record?
**A.** 0.00622

**Q.** For GUGCCUUGCGCCGGGAAACCACGCAAGGGAUGGUGUCAAAUUCGGCGAAACCUAAGCGCCCGCCCGGGCGUAUGGCAACGCUGAGCCAAGCUUCGGCGCCUGCGCCGAUGCAGGUGUAGCGACUAGACGGCACCCACCUAAGGCGAACGGUAUGGUGAAGGCAUAGUCCAGGGAGCGGCGAAAGUCACACAAACCGG [C82U A111C A120C A145G C150G U176C], which reverse-splicing fitness is on record?
**A.** 0.00988

**Q.** Which reverse-splicing fitness does the source give for GUGCCUUGCGCCGGGAAACCACGCAAGGGAUGGUGUCAAAUUCGGCGAAACCUAAGCGCCCGCCCGGGCGUAUGGCAACGCUGAGCCAAGCUUCGGCGCCUGCGCCGAUGCAGGUGUAGCGACUAGACGGCACCCACCUAAGGCGAACGGUAUGGUGAAGGCAUAGUCGAGGGAGGGGCGAAAGUCACACAAACCGG [C82U A111C A120C A145G C150G C169G U176G] here?
**A.** 0.00542

**Q.** For GUGCCUUGCGCCGGGAAACCACGCAAGGGAUGGUGUCAAAUUCGGCGAAACCUAAGCGCCCGCCCGGGCGUAUGGCAACGCUGAGCCAAGCUUCGGCGCCUGCGCCGAUGCAGGUGUAGCGACUAGACGGCACCCACCUAAGGCGAACGGUAUGGUGAAGGCAUAGUCGAGGGAGCGGCGAAAGUCACACAAACCGG [C82U A111C A120C A145G C150G C169G U176C], which reverse-splicing fitness is on record?
**A.** 0.011

**Q.** With GUGCCUUGCGCCGGGAAACCACGCAAGGGAUGGUGUCAAAUUCGGCGAAACCUAAGCGCCCGCCCGGGCGUAUGGCAACGCUGAGCCAAGCUUCGGCGCCUGCGCCGAUGCAGGUGUAGCGACUAGACGGCACCCACCUAAGGCGAACGGUAUGGUGAAGGCAUAGUCGAGGGAGAGGCGAAAGUCACACAAACCGG [C82U A111C A120C A145G C150G C169G U176A] as the variant, how does the reverse-splicing fitness read?
**A.** 0.00967
